T1: human TIGIT expressed on cells (YTS-TIGIT transfectants, NK cells of healthy donors, CD8+ TILs) (human, UniProt Q495A1 22-244)
T1 construct: whole, on cells; also called hTIGIT; T-cell immunoglobulin and ITIM domain
T1 sequence (looked up): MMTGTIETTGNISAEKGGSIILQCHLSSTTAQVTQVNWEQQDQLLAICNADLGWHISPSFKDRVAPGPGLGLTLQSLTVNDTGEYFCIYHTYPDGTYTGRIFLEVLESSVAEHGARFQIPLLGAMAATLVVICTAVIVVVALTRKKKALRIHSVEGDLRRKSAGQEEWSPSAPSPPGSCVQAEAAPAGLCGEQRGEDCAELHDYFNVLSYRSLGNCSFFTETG

T2: human TIGIT from two commercial sources (loaded on Biacore biosensor) (human, UniProt Q495A1 22-141)
T2 sequence (looked up): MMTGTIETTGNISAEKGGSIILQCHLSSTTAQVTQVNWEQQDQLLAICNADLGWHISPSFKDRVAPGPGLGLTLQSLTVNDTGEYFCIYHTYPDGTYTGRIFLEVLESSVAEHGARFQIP


Experiments:
[1] = target: human TIGIT expressed on cells (YTS-TIGIT transfectants, NK cells of healthy donors, CD8+ TILs) (human) (UniProt Q495A1); assay: FACS on 75×10^3 YTS-TIGIT cells, serial dilutions 250 nM to 65 fM
[2] = target: human TIGIT expressed on cells (YTS-TIGIT transfectants, NK cells of healthy donors, CD8+ TILs) (human) (UniProt Q495A1); assay: FACS blocking assay on YTS-TIGIT cells: antibody titrated against 2.5 pmole PVR-Fc, bound PVR-Fc detected
[3] = target: human TIGIT expressed on cells (YTS-TIGIT transfectants, NK cells of healthy donors, CD8+ TILs) (human) (UniProt Q495A1); assay: FACS on YTS-TIGIT cells in the presence of 2.5 pmole PVR-Fc, bound antibody detected with anti-mouse IgG Alexa Fluor 647
[4] = target: T1, human TIGIT expressed on cells …; assay: FACS titration on YTS-TIGIT cells, fluorescence intensity against antibody concentration
Description: FIG. 6A. […] Background—staining of mIgG (grey filled histograms). Each panel represents a specific concentration of the antibodies as indicated. Y-axis of each panel is cell counts and X-axis is fluorescence intensity (FL1-H).

[5] = target: T2, human TIGIT from two commercial sources …; assay: SPR (Biacore), human TIGIT on the biosensor; average of two commercial sources; average of the two TIGIT sources
Experimental: (§1) Surface plasmon resonance (SPR) Biosensor Biacore™ T100 (GE Healthcare) was used to determine Koff, Kon and KD between the antibodies and TIGIT.
(§2) Full binding kinetic analyses of the mAbs to human TIGIT from two sources were carried out using Biacore.

[6] = target: T2, human TIGIT from two commercial sources …; assay: SPR (Biacore), human TIGIT on the biosensor; one of two commercial sources; the other of two TIGIT sources (source not named)
Experimental: as §1, §2

[7] = target: T2, human TIGIT from two commercial sources …; assay: SPR (Biacore), human TIGIT on the biosensor; one of two commercial sources; one of two TIGIT sources (source not named)
Experimental: as §1, §2

Row | lowest concentration at which cells were stained [1] [fM] | MFI of bound PVR-Fc, antibody at 0.014 pmol [2] | MFI of bound PVR-Fc, antibody at 0.028 pmol [2] | MFI of bound PVR-Fc, antibody at 0.056 pmol [2] | MFI of bound PVR-Fc, antibody at 0.115 pmol [2] | MFI of bound PVR-Fc, antibody at 0.21 pmol [2] | MFI of bound PVR-Fc, antibody at 0.425 pmol [2] | MFI of bound antibody at 0.014 pmol [3] | MFI of bound antibody at 0.028 pmol [3] | MFI of bound antibody at 0.056 pmol [3] | MFI of bound antibody at 0.115 pmol [3] | MFI of bound antibody at 0.21 pmol [3] | MFI of bound antibody at 0.425 pmol [3] | MFI of bound antibody at 0.85 pmol [3] | MFI of bound antibody at 27 pmol [3] | EC50 (read off the curve) [4] [nM] | Kd [5] [nM] | Kd [6] [nM] | Kd [7] [nM] | Molecule
1 | > 1950 | 34 | 27.1 | 22.6 | 12.6 | 7.8 | 4.5 | 64 | 88 | 150 | 224 | 302 | 325 | 380 | 445 | – | – | – | – | commercial anti-TIGIT antibody MBSA43 (eBioscience Cat#12-9500-42)
2 | – | – | – | – | – | – | – | – | – | – | – | – | – | – | – | ~0.007 | 0.45 | 0.387 | 0.513 | anti human TIGIT monoclonal antibody VSIG9#1 (antibody, V domains shown, Mouse monoclonal antibody from a hybridoma; It was detected with anti-mouse IgG; also called Vsig9.01; anti TIGIT-VSIG9#1) VH: QVQLQESGAELARPGASVKLSCKASGYTFTSYGISWVKQRTGQGLEWIGEIYPRSGNTYYNEKFKGKATLTADKSSSTAYMELSSLTSEDSAVYFCARKGPYYTKNEDYWGQGTILTVSS VL: DIQMTQSPASLAASVGETVTITCRASEHIYYSLAWYQQKQGKSPQLLIYNANSLEDGVPSRFSGSGSGTQYSMKINSMQPEDTATYFCKQAYDVPRTFGGGTKLEIKR
3 | – | – | – | – | – | – | – | – | – | – | – | – | – | – | – | – | ~100 | 107 | 99.6 | anti human TIGIT monoclonal antibody 258-CS1#4 (antibody, V domains shown, Mouse monoclonal antibody from a hybridoma) VH: QVQLLQPGAELVKPGASVKLSCKASGYTFTIYCIHWVKQRPGQGLEWIGEISPSNGRTIYNEKFKNKATLTIDKSSTTAYMQLSSLTSEDSAVYCCAISDGYDGYYFDYWGQGTTLTVSS VL: DIQMTQSPSSLSASLGERVSLTCRASQEISGYLNWLQQKPDGTIKRLIYAASTLDSGVPKRFSGSRSGSDYSLTISRLESEDFADYYCLQYASYPRTFGGGTKLEIK

— patent US20210220472A1 (YISSUM RESEARCH DEVELOPMENT COMPANY OF THE HEBREW …, published 2021)
